The record followed here is patent publication US11352401.

The target in experiment [1] is HLA-A*02:01 (human). Nature of the experiment: preformed control pMHC complex for aAPC stimulation. The protocol: (§1) 800.000 beads/200 μl were coated in 96-well plates in the presence of 4×12.5 ng different biotin-pMHC, washed and 600 ng biotin anti-CD28 were added subsequently in a volume of 200 μl. […] Half of the medium was then exchanged by fresh TCM supplemented with 80 U/ml IL-2 and incubating was continued for 4 days at 37° C. This stimulation cycle was performed for a total of three times. For the pMHC multimer readout using 8 different pMHC molecules per condition, a two-dimensional combinatorial coding approach was used as previously described (Andersen et al., 2012) with minor modifications encompassing coupling to 5 different fluorochromes. Finally, multimeric analyses were performed by staining the cells with Live/dead near IR dye (Invitrogen, Karlsruhe, Germany), CD8-FITC antibody clone SK1 (BD, Heidelberg, Germany) and fluorescent pMHC multimers. For analysis, a BD LSRII SORP cytometer equipped with appropriate lasers and filters was used. Peptide specific cells were calculated as percentage of total CD8+ cells. Evaluation of multimeric analysis was done using the FlowJo software (Tree Star, Oregon, USA). In vitro priming of specific multimer+CD8+ lymphocytes was detected by comparing to negative control stimulations.

The target of a further experiment is HLA-A*24:02 (human). As to the kind of experiment: preformed pMHC complex on aAPC beads and as fluorescent multimer, in vitro CD8+ T cell priming. Here is the method: (§2) Viable singlet cells were gated for CD8+ lymphocytes. Boolean gates helped excluding false-positive events detected with multimers specific for different peptides.
as §1

For experiment [2], the target named is HLA-A*02:01 (human). The experiment is described as above. The protocol: as §2, §1

B1: DDX5-001 (YLLPAIVHI from DDX5) (peptide)
peptide: YLLPAIVHI
notes: Negative control peptide for T cell stimulations (still a pMHC complex with A*02:01); also called 533
Turning to B1, the binding result with HLA-A*02:01 [1] was “binds”.

B2: SeqID No 504 peptide (VYEKNGYIYF) (peptide)
peptide: VYEKNGYIYF
notes: Synthetic peptide
Regarding B2, the binding result with HLA-A*24:02 is “binds”.

B3: SeqID No 520 peptide (KIQEMQHFL) (peptide)
peptide: KIQEMQHFL
notes: Synthetic peptide
Turning to B3, the binding result with HLA-A*02:01 [2] is reported as “binds”.
